Test results as given in US20250388669A1 (published 2025).

T1: B7H3 (UniProt Q5ZPR3 29-466, limits assumed)
T1 sequence (looked up): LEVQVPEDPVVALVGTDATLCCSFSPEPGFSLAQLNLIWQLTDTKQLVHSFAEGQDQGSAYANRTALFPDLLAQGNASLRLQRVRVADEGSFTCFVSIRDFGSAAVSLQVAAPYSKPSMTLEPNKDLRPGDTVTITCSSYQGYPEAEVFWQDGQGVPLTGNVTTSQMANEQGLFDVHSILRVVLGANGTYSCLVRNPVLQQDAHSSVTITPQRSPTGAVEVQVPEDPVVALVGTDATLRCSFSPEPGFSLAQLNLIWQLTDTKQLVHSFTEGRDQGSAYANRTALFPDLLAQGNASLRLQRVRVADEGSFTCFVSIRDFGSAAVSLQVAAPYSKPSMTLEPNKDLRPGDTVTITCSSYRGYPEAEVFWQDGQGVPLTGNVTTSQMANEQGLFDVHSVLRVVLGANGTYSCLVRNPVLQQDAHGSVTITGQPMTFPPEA


Experiments:
[1] = target: T1, B7H3; assay: FCM or ELISA, graded
[2] = target: CD40 (UniProt P25942 21-193, limits assumed); assay: FCM or ELISA, graded
[3] = target: T2, CD137 (human, UniProt Q07011 24-186); assay: CD137 binding (method not given)
T2 construct: In the reporter assay it is whole, on GS-H2-huCD137 cells; also called 4-1BB; huCD137

Chain of CD40 (P25942 21-193 limits assumed): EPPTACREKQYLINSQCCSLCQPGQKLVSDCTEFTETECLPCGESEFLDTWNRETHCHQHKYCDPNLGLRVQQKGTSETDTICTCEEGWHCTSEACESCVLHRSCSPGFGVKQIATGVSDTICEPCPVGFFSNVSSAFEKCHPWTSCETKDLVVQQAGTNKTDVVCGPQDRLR

| binding result [1] | binding result [2] | EC50 [3] [µg/mL] | Binder |
| --- | --- | --- | --- |
| binds | binds | – | Ly2434 (bispecific antibody, human IgG1, kappa, B7H3 Fabs x terminal CD40 Fv (TM559)) heavy 1: QVQLVQSGAEVKKPGASVKVSCKASGYTFTSYVMHWVRQKPGQGLEWIGYINPYNEGTESTDKFKGRATMTSDKSTSTVYMELSSLRSEDTAVYYCASIYYGYEGTYFGVWGQGTLVTVSSASTKGPSVFPLAPSSKSTSGGTAALGCLVKDYFPEPVTVSWNSGALTSGVHTFPAVLQSSGLYSLSSVVTVPSSSLGTQTYICNVNHKPSNTKVDKKVEPKSCDKTHTCPPCPAPEAAGPSVFLFPPKPKDTLMISRTPEVTCVVVDVSHEDPEVKFNWYVDGVEVHNAKTKPREEQYNSTYRVVSVLTVLHQDWLNGKEYKCKVSNKALPAPIEKTISKAKGQPREPQVYTLPPSREEMTKNQVSLWCLVKGFYPSDIAVEWESNGQPENNYKTTPPVLDSDGSFFLYSKLTVDKSRWQQGNVFSCSVMHEALHNHYTQKSLSLSPGGGGGSGGGGSGGGGSGGGGSEVQLVESGGGLVQPGGSLRLSCAASGFTFTNYGLHWVRQAPGKGLEWVSSISPSGGVTYYRDSVKGRFTISRDNSKNTLYLQMNSLRAEDTAVYYCAKPFLGWGGANWIAHWGQGTLVTVSS heavy 2: QVQLVQSGAEVKKPGASVKVSCKASGYTFTSYVMHWVRQKPGQGLEWIGYINPYNEGTESTDKFKGRATMTSDKSTSTVYMELSSLRSEDTAVYYCASIYYGYEGTYFGVWGQGTLVTVSSASTKGPSVFPLAPSSKSTSGGTAALGCLVKDYFPEPVTVSWNSGALTSGVHTFPAVLQSSGLYSLSSVVTVPSSSLGTQTYICNVNHKPSNTKVDKKVEPKSCDKTHTCPPCPAPEAAGPSVFLFPPKPKDTLMISRTPEVTCVVVDVSHEDPEVKFNWYVDGVEVHNAKTKPREEQYNSTYRVVSVLTVLHQDWLNGKEYKCKVSNKALPAPIEKTISKAKGQPREPQVYTLPPSREEMTKNQVSLSCAVKGFYPSDIAVEWESNGQPENNYKTTPPVLDSDGSFFLVSKLTVDKSRWQQGNVFSCSVMHEALHNRFTQKSLSLSPGGGGGSGGGGSGGGGSGGGGSDIQMTQSPSSLSASVGDRVTITCLASEDISNDLAWYQQKPGKAPKLLIYFVDRLLDGVPSRFSGSGSGTDFTLTISSLQPEDFATYYCQQSYKYPPTFGQGTKLEIK light: EIVLTQSPATLSLSPGERATLSCRASSSVSYMHWYQQKPGQAPRPWIYATSNLASGIPARFSGSRSGTDYTLTISSLEPEDFAVYYCQQWSSNTLTFGGGTKVEIKRTVAAPSVFIFPPSDEQLKSGTASVVCLLNNFYPREAKVQWKVDNALQSGNSQESVTEQDSKDSTYSLSSTLTLSKADYEKHKVYACEVTHQGLSSPVTKSFNRGEC |
| – | – | 0.08 | Ly1630 (antibody, V domains shown, Parent mAb; also called Anti-CD137 Ly1630; parent anti-CD137 mAb) VH: QVQLVQSGAEVKKPGASVKVSCKASGYTFAGFEMHWVRQAPGQGLEWMGAIDPKTGGTDYNQKFKDRVTMTRDTSISTAYMELSRLRSDDTAVYYCARDLGYFDVWGQGTLVTVSS VL: DIQMTQSPSSLSASVGDRVTITCRASQDIRSNLNWYQQKPGGAVKLLIYYTSRLHSGVPSRFSGSGSGTDYTLTISSLQPEDFATYFCQQSEKLPRTFGGGTKVEIR |
